Test system: T1, NCCc1c[nH]c2ccc(O)cc12
T1 construct: wild-type hSERT expressed in HEK293S cells
Test: cells, lysate or membranes
Assay type: cell-based, Homo sapiens
Details: Na+ and Cl-

human serotonin transporter (hSERT) (Homo sapiens)
Km: 3.4 µM

Reference: article PMC4687910, “Thermostabilization of the Human Serotonin Transporter in an Antidepressant-Bound Conformation” (PLoS ONE, 2015)
